ChEMBL document CHEMBL3352420, “Discovery of 2-pyridylureas as glucokinase activators” (J Med Chem, 2014)

Key:
[1] = compound: CCNC(=O)Nc1ncc(Sc2ccccn2)cc1Oc1cccnc1CC; experiment: (§1) Activation of purified human glucokinase isoform 3 (13 to 466 aa) assessed as Vmax by spectrophotometry in presence of varying concentration of glucose relative to control
[2] = compound: CCOC(=O)Nc1ncc(Sc2ccccn2)cc1Oc1cccnc1CC; experiment: as §1
[3] = compound: CCc1ncccc1Oc1cc(Sc2ccccn2)cnc1NC(=O)NC; experiment: as §1
[4] = compound: CCc1ncccc1Oc1cc(Sc2ccccn2)cnc1NC(=O)NC(C)C; experiment: as §1
[5] = compound: CCc1ncccc1Oc1cc(Sc2ccccn2)cnc1NC(=O)NCCO; experiment: as §1
[6] = compound: CCc1ncccc1Oc1cc(Sc2ccccn2)cnc1NC(=O)NCc1ccc(O)cc1; experiment: as §1
[7] = compound: CCc1ncccc1Oc1cc(Sc2ccccn2)cnc1NC(=O)NCc1cccc(O)c1; experiment: as §1
[8] = compound: CCc1ncccc1Oc1cc(Sc2ccccn2)cnc1NC(=O)NCc1ccccc1O; experiment: as §1
[9] = compound: CCc1ncccc1Oc1cc(Sc2ccccn2)cnc1NC(=O)NCc1ccccn1; experiment: as §1
[10] = compound: CCc1ncccc1Oc1cc(Sc2ccccn2)cnc1NC(=O)NCc1cccnc1; experiment: as §1
[11] = compound: CCc1ncccc1Oc1cc(Sc2ccccn2)cnc1NC(=O)NCc1ccncc1; experiment: as §1
[12] = compound: CCc1ncccc1Oc1cc(Sc2ccccn2)cnc1NC(C)=O; experiment: as §1
[13] = compound: CCc1ncccc1Oc1cc(Sc2ccccn2)cnc1NC(N)=O; experiment: as §1
[14] = compound: CCc1ncccc1Oc1cc(Sc2ccccn2)cnc1NC=O; experiment: as §1
[15] = compound: CCn1nccc1Oc1cc(Sc2ccccn2)cnc1NC(=O)NC; experiment: as §1
[16] = compound: CNC(=O)Nc1ncc(SC2CCN(C(=O)OC(C)(C)C)CC2)cc1Oc1cccnc1C; experiment: as §1
[17] = compound: CNC(=O)Nc1ncc(SC2CCN(C(C)=O)CC2)cc1Oc1cccnc1C; experiment: as §1
[18] = compound: CNC(=O)Nc1ncc(SC2CCN(S(C)(=O)=O)CC2)cc1Oc1cccnc1C; experiment: as §1
[19] = compound: CNC(=O)Nc1ncc(SC2CCOCC2)cc1Oc1cccnc1C; experiment: as §1
[20] = compound: CNC(=O)Nc1ncc(SCC2CCOCC2)cc1Oc1cccnc1C; experiment: as §1
[21] = compound: CNC(=O)Nc1ncc(SCCCO)cc1Oc1cccnc1C; experiment: as §1
[22] = compound: CNC(=O)Nc1ncc(SCCCOC)cc1Oc1cccnc1C; experiment: as §1
[23] = compound: CNC(=O)Nc1ncc(SCc2ccccc2)cc1Oc1cccnc1C; experiment: as §1
[24] = compound: CNC(=O)Nc1ncc(SCc2ccccn2)cc1Oc1cccnc1C; experiment: as §1
[25] = compound: CNC(=O)Nc1ncc(Sc2ccccn2)cc1Oc1c(C)n[nH]c1C; experiment: as §1
[26] = compound: CNC(=O)Nc1ncc(Sc2ccccn2)cc1Oc1cccnc1C; experiment: as §1

B1: Hexokinase-4 (Homo sapiens), P35557 (protein)
chain: MLDDRARMEAAKKEKVEQILAEFQLQEEDLKKVMRRMQKEMDRGLRLETHEEASVKMLPTYVRSTPEGSEVGDFLSLDLGGTNFRVMLVKVGEGEEGQWSVKTKHQMYSIPEDAMTGTAEMLFDYISECISDFLDKHQMKHKKLPLGFTFSFPVRHEDIDKGILLNWTKGFKASGAEGNNVVGLLRDAIKRRGDFEMDVVAMVNDTVATMISCYYEDHQCEVGMIVGTGCNACYMEEMQNVELVEGDEGRMCVNTEWGAFGDSGELDEFLLEYDRLVDESSANPGQQLYEKLIGGKYMGELVRLVLLRLVDENLLFHGEASEQLRTRGAFETRFVSQVESDTGDRKQIYNILSTLGLRPSTTDCDIVRRACESVSTRAAHMCSAGLAGVINRMRESRSEDVMRITVGVDGSVYKLHPSFKERFHASVRRLTPSCEITFIESEEGSGRGAALVSAVACKKACMLGQ
For B1, the Vmax [1] was 64%, the Vmax [2] was “Not active” and the Vmax [3] was 77%. For the same protein, the Vmax [4] was “Not active”, the Vmax [5] was 66% and the Vmax [6] was 66%. For the same protein, the Vmax [7] was 68%, the Vmax [8] was 84% and the Vmax [9] was 72%. The Vmax [10] was 75%, the Vmax [11] was 73% and the Vmax [12] was “Not active”. For the same protein, the Vmax [13] was 77%, the Vmax [14] was 104% and the Vmax [15] was 90%. The Vmax [16] was 75%, the Vmax [17] was 59% and the Vmax [18] was 54%. It also gave a Vmax [19] of 73%, a Vmax [20] of 88% and a Vmax [21] of 80%. The Vmax [22] was 87%, the Vmax [23] was 76% and the Vmax [24] was 146%. For the same protein, the Vmax [25] was 53% and the Vmax [26] was 74%.
